We go through one substance from patent publication US7803572B2, “Protease detection assay” (Atlas Genetics, Ltd., priority 2003, dated 2010).

Read-outs that look alike come from different tables or passages of the source.

One test concerns the target T1, trypsin (Sus scrofa, UniProt P00761).
T1 construct: purchased Sigma; host or cells: porcine pancreas
The experiment in a line: Amperometric analysis of trypsin digestion. It counts as biochemical, porcine. The following applies: amperometric time course trace. As to the method:
Four digestion reactions were carried out with real-time amperometric analysis. […] Tryspin was resuspended in HCl (1 mM, pH 3.0), papain and carboxypeptidase were resuspended in NaCl (100 mM). […] The amperometry conditions were as set out in Tables 2 and 3.
In FIG. 17, there is shown the amperometric time course trace for the trypsin digestion of Fc-BSA. […] As the movement of the species present in the solution reaches a steady state, the current response appears to decay.
In FIG. 18, there is shown the amperometric time course trace for the papain digestion of FcU-BSA. […] As the movement of the species present in the solution reaches a steady state, the current response appears to decay. […] The amperometric time course trace for the trypsin digestion of FcU-BSA is not illustrated in the drawings but was analogous.

The target in test [1] is Bacillus thermoproteolyticus rokko thermolysin (Bacillus thermoproteolyticus, UniProt P00800). The following applies: for peak: no-thermolysin control reaction; for peak height / peak position: positive reaction. The method, then:
The low volume cell of FIG. 1 was filled with approximately 10 ml sodium chloride solution (100 mM). A 200 μl aliquot of the sample for analysis was placed in the glass sample chamber which was then placed in the low volume cell along with the reference and counter electrodes. The electrodes were connected to the AUTOLAB electrochemical workstation and differential pulse voltammetry carried out using the parameters described in Table 1. Prior to analysis the glassy carbon working electrode was polished (using BAS polishing kit catalogue number MF-2060) followed by conditioning. Electrode conditioning consists of cyclic voltammetry, sweeping between +−1 volt in the appropriate background buffer.
Protease assays were performed as follows unless stated otherwise. Lyophilised enzymes were re-suspended to give a concentration of 10 mgml^−1. Enzymes were resuspended in the following solutions: HCl (1 mM, pH 3.0) (trypsin, α-chymotrypsin, pepsin), NaCl (100 mM) (proteinase K, elastase, papain, carboxypeptidase, thermolysin). 75 μl of Fc-BSA solution (0.3-0.6 mgml^−1) was used per reaction. Each reaction was carried out in a total volume of 200 μl and the reactions were performed in the following buffers (final concentrations are given): 100 mM tris HCl pH7.8 (trypsin, α-chymotrypsin, thermolysin, proteinase K); 100 mM tris HCl pH 8.5 (elastase); 200 mM sodium acetate, 200 mM cysteine, 20 mM EDTA (papain); 10 mM HCl pH 2.0 (pepsin); 25 mM tris HCl pH7.5, 500 mM NaCl (carboxypeptidase). 2 μl enzyme (10 mgml^−1) was added to the […] reaction mixture. Samples were incubated at 37° C. for 1 hour. The reaction products were analysed by differential pulse voltammetry as described in Example 1.
Baseline corrected data was obtained using GPES MANAGER (Ecochemie BV, Utrecht, Netherlands) selecting baseline correction from the edit data menu, selecting moving average, minimum peak width 0.003V.
A digestion of Fc-BSA with thermolysin was carried out as described above with the digestion incubation at 37° C.
A digestion of Fc-BSA with thermolysin was carried out as described above with the digestion incubation at 70° C.

The target of test [2] is T2, porcine stomach mucosa pepsin (Sus scrofa, UniProt P00791).
T2 construct: purchased Sigma; host or cells: porcine stomach mucosa
In words: Digestion of Fc-BSA with pepsin, differential pulse voltammetry. It is filed as biochemical. The method, then:
Protease assays were performed as follows unless stated otherwise. […] Samples were incubated at 37° C. for 1 hour.
A digestion of Fc-BSA with pepsin was carried out as described above. […] The positive reaction has a peak position of 537 mV and a peak height of 8.90×10^−8 A; the no-pepsin control reaction has a peak position of 522 mV and a peak height of 4.19×10^−8 A.

[3] abbreviates: positive reaction, 10 mM HCl pH 2.0, 37° C. for 1 hour.

T2 sequence (P00791 60-385): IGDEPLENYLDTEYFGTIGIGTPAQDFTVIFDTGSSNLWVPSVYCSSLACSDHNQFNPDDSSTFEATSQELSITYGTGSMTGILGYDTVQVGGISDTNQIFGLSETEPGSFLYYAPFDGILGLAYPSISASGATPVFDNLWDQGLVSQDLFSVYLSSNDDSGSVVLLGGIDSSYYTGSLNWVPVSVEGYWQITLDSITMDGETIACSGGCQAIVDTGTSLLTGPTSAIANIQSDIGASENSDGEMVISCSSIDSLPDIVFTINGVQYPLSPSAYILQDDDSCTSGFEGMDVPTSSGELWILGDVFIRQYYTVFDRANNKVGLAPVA
Sequence of Bacillus thermoproteolyticus rokko thermolysin (P00800 233-548): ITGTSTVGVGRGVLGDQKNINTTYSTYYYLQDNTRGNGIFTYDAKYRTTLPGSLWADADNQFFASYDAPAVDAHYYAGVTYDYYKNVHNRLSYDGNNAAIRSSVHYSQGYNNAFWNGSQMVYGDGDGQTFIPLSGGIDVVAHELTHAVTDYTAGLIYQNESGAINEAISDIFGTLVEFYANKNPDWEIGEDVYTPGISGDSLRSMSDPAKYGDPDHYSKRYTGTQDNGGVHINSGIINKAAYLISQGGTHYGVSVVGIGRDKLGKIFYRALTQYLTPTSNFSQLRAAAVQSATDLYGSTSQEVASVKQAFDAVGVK
T1 sequence (P00761 9-231): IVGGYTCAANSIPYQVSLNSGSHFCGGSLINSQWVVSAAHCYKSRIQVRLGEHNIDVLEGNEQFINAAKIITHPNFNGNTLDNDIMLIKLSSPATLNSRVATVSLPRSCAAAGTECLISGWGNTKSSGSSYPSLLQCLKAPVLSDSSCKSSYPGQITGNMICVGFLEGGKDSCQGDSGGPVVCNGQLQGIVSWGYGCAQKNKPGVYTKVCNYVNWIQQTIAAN

Regarding “Fc-BSA: Bovine serum albumin labelled with ferrocene methanoyl groups via N-hydroxysuccinimide ester; estimated 10 to 20 ferrocenes per BSA”, in the test with trypsin, the “faradaic current response over time after addition of the enzyme” value is recorded as “increase in current”. The peak entry in test [1] (37° C.) and in test [1] (70° C.) was “no peak was found” in each case. The peak height in test [1] (digestion incubation at 37° C.) is 1.62×10^−8 A; in test [1] (digestion incubation at 70° C.) it was 2.0×10^−8 A; in test [2] (no-pepsin control reaction), 4.19×10^−8 A; in test [2] (setting [3]) it was 8.90×10^−8 A. Also, the peak position in test [1] (digestion incubation at 37° C.) stood at 429 mV; in test [1] (digestion incubation at 70° C.) it was 455 mV; in test [2] (no-pepsin control reaction) it was 522 mV; in test [2] (setting [3]) it was 537 mV.
